Source: paper PMC3698143, “GRG5/AES Interacts with T-Cell Factor 4 (TCF4) and Downregulates Wnt Signaling in Human Cells and Zebrafish Embryos” (PLoS ONE, 2013)

Biological target: Myc-tagged full-length TCF4 (human, UniProt Q9NQB0-8 1-596)
Assay: cell-based or functional assay

Sequence of Myc-tagged full-length TCF4 (Q9NQB0 other isoform, or with tags, fused parts or gaps): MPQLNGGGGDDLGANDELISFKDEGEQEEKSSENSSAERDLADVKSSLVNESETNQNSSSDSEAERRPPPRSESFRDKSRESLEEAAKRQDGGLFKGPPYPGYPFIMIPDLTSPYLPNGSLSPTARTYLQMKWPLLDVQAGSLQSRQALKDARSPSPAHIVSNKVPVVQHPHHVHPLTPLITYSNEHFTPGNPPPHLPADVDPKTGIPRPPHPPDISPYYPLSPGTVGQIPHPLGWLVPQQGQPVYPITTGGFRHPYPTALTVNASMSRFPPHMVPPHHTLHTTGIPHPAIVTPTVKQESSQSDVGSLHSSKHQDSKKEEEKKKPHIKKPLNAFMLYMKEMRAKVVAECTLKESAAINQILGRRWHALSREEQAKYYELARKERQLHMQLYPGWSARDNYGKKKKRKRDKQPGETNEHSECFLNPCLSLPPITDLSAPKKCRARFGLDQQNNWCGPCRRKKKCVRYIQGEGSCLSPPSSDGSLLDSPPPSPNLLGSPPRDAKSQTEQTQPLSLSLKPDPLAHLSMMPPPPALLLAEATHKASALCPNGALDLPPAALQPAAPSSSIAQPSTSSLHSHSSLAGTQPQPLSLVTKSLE

B1: HA-epitope-tagged GRG5/AES (natural protein, human, UniProt Q08117 1-197, looked up)
chain: MMFPQSRHSGSSHLPQQLKFTTSDSCDRIKDEFQLLQAQYHSLKLECDKLASEKSEMQRHYVMYYEMSYGLNIEMHKQAEIVKRLNGICAQVLPYLSQEHQQQVLGAIERAKQVTAPELNSIIRQQLQAHQLSQLQALALPLTPLPVGLQPPSLPAVSAGTGLLSLSALGSQAHLSKEDKNGHDGDTHQEDDGEKSD
- TCF-Luc luciferase reporter in HEK293 cells with transfected β-catenin: repression on co-transfection of GRG5/AES and dnTCF4 plasmids (0.4 µg each), against a 6.3-fold additive effect of each alone: 22.5 fold
